The results in this text go back to publication doi:10.1101/2025.09.11.674065.

This test concerns the target His6-AstR (Acinetobacter baumannii ATCC 17978VU). The experiment in a line: SEC; size exclusion chromatography with standard curves; purified His6-AstR; Size Exclusion Buffer 50 mM Tris, 300 mM NaCl, pH 8. (In general: SEC sorts molecules by how far they enter the pores of the column.)

On to His6-AstR (natural protein), for which the stoichiometry N (usually a count of units in the complex or per binding partner) was determined as 2.
